Results reported in publication PMC12985673.
Where “and” joins values, the source holds several entries; their conditions need not be identical. Identical values can stand only once. Like-named read-outs stand apart in the source and are kept apart here.

What was measured:
[1] = target: full-length neuroligin 2 (NL2), mouse, without the splice insert at site A (mouse) (UniProt Q69ZK9); assay: cryo-EM structure; NL2 and NRXβ1 purified separately, mixed at one-to-one molar ratio, ~20 μM (monomer) each, on ice 10 min; only the ECDs resolved; Ca2+ at the interface
[2] = target: full-length neuroligin 2 (NL2), mouse, without the splice insert at site A (mouse) (UniProt Q69ZK9); assay: proteoliposome colocalisation (TIRF microscopy); as a5 at 2x protein: NL2 1:5 and NRXβ1 1:10 protein:lipid (w/w); all detections
[3] = target: full-length neuroligin 2 (NL2), mouse, without the splice insert at site A (mouse) (UniProt Q69ZK9); assay: as above; remark: listed apart in the source
[4] = target: NRXβ1 ECD (amino acids 81 to 311), His-tagged, labelled with Alexa Fluor 488 (mouse) (UniProt P0DI97); assay: fluorescence polarisation; 8 nM NRXβ1 ECD–AF488, NL2 or NL2mut titrated 15 nM to 8 μM; 20 mM Hepes pH 7.5, 150 mM NaCl, 1 mM MgCl2, 0.5 mM CaCl2; triplicate; Hill fit with shared slope; apparent
[5] = target: Neurexin β1 (UniProt P58400); conditions: cited from earlier work
[6] = target: Neurexin β1 ECD (UniProt P58400); conditions: cited from earlier work
[7] = target: Neurexin β1 ECD (UniProt P58400); conditions: cited from earlier work; remark: listed apart in the source
[8] = target: Neurexin β1 (UniProt P58400); conditions: cited from earlier work; remark: listed apart in the source

Chain of full-length neuroligin 2 (NL2), mouse, without the splice insert at site A (mouse) (Q69ZK9 other isoform, or with tags, fused parts or gaps): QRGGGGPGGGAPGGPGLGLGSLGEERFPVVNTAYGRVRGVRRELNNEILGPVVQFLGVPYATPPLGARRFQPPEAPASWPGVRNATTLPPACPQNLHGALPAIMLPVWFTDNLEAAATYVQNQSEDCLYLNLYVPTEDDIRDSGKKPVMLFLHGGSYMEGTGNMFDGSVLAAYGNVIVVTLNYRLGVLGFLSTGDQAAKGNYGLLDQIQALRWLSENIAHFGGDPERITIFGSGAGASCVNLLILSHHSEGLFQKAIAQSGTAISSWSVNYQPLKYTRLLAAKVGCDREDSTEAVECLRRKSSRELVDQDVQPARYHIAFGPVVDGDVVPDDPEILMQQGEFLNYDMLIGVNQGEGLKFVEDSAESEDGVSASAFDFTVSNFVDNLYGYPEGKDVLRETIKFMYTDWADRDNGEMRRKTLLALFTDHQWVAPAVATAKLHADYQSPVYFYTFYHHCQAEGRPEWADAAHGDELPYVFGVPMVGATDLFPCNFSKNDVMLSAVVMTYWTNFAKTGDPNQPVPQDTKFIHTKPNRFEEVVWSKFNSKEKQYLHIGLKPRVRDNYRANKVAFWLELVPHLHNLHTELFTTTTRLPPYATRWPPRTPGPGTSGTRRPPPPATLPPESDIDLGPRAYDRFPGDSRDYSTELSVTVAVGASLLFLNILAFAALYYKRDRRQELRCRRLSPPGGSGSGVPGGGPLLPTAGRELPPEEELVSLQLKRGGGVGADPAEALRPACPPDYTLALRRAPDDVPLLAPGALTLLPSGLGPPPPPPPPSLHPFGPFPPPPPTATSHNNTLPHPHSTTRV
Chain of Neurexin β1 ECD (P58400 51-396): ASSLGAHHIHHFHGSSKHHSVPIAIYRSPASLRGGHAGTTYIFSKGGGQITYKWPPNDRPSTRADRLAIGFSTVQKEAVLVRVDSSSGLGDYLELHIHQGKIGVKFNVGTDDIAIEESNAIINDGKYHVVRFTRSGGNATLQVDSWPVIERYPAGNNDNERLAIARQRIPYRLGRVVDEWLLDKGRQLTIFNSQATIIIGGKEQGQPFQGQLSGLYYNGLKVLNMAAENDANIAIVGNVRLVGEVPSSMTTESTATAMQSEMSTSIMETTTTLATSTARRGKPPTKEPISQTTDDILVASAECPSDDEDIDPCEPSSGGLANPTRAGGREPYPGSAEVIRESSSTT
Chain of Neurexin β1 (P58400 51-396): as above
Chain of Neuroligin 2 (Q8NFZ4 15-677): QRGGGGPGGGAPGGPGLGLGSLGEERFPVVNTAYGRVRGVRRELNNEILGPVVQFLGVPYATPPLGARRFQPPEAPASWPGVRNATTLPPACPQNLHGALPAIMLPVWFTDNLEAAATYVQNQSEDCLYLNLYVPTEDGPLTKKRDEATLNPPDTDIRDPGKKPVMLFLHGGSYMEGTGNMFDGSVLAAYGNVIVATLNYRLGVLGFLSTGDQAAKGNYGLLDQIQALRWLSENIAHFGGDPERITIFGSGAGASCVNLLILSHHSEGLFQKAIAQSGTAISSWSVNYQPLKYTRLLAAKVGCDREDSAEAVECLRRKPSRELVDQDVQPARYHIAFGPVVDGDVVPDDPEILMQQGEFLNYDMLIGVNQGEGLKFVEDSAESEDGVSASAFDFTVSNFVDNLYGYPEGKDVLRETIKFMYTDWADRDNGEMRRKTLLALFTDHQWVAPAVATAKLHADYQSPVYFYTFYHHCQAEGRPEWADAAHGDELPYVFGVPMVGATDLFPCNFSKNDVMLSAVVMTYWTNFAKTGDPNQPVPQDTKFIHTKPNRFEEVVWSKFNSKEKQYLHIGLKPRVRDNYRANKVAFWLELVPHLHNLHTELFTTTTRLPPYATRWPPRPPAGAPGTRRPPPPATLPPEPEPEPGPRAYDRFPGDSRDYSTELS
Chain of Neuroligin 3 (Q9NZ94 38-709): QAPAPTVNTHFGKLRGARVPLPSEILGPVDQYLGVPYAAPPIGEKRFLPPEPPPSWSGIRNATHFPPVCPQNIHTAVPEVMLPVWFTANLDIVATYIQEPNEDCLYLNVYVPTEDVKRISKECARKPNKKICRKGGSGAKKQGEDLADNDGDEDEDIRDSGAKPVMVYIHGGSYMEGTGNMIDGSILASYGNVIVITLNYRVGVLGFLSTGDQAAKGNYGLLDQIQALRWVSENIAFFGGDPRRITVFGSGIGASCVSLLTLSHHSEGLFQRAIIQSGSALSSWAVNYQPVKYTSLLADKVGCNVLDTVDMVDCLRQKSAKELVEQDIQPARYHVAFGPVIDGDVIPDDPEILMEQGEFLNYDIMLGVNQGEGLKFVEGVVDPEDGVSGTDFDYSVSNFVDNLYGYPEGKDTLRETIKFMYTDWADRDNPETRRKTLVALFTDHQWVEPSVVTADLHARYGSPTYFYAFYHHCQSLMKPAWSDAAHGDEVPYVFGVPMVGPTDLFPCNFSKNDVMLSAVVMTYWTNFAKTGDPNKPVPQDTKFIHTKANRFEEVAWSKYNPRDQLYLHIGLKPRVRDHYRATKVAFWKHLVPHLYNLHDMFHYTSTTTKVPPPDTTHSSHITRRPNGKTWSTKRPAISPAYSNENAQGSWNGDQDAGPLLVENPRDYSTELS
Chain of Neuroligin 1 ECD (Q8N2Q7 46-717): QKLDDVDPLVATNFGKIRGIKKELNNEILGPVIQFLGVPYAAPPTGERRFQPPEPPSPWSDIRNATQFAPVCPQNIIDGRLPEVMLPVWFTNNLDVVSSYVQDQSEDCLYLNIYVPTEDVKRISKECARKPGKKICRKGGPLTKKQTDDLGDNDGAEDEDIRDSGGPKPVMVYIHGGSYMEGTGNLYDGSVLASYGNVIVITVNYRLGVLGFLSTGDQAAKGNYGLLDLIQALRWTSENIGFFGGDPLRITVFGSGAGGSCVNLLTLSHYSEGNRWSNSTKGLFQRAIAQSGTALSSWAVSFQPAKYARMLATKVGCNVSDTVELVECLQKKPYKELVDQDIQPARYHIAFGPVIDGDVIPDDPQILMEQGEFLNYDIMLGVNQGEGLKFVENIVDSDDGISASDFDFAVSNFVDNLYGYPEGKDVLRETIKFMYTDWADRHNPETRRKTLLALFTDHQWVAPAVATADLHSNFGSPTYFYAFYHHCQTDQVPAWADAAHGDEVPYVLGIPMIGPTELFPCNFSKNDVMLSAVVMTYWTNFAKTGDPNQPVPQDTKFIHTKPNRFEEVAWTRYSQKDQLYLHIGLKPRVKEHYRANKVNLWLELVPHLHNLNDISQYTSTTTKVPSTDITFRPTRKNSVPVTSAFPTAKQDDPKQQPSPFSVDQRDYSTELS
Chain of full-length neuroligin 2 (NL2), mouse, without the splice insert at site A (Q69ZK9 other isoform, or with tags, fused parts or gaps): as the sequence (Q69ZK9 other isoform, or with tags, fused parts or gaps) above

In the case of “full-length neurexin β1 (NRXβ1), mouse, without the insert at splice site 4 (from UniProt P0DI97 47-468) (receptor)”, the stoichiometry N (NRXβ1 per NL2 dimer) [1] is reported as 2 and 1, the fraction of vesicles colocalised [2] is reported as > 0.5 and the fraction of vesicles colocalised [3] is reported as 0.6.

In the case of “NL2 H279Y G282K mutant (from UniProt Q69ZK9 170-836) (receptor)”, the fold increase of affinity against wild-type NL2 [4] is reported as 30 fold.

In the case of Neuroligin 2 (from UniProt Q8NFZ4), the Kd [5] is given as 10000 nM.

In the case of Neuroligin 1 ECD (from UniProt Q8N2Q7), the Kd [6] is given as 10 nM.

For Neuroligin 4 ECD (from UniProt Q8N0W4), the Kd [7] is listed as 100 nM.

In the case of Neuroligin 3 (from UniProt Q9NZ94), the Kd [8] is given as 1000 nM.

“full-length neuroligin 2 (NL2), mouse, without the splice insert at site A (from UniProt Q69ZK9 15-836) (receptor)” showed a Kd [4] of 6000 nM.
